Biological target: T1, calpain-2 (Homo sapiens, UniProt P17655)
T1 sequence (P17655 1-700): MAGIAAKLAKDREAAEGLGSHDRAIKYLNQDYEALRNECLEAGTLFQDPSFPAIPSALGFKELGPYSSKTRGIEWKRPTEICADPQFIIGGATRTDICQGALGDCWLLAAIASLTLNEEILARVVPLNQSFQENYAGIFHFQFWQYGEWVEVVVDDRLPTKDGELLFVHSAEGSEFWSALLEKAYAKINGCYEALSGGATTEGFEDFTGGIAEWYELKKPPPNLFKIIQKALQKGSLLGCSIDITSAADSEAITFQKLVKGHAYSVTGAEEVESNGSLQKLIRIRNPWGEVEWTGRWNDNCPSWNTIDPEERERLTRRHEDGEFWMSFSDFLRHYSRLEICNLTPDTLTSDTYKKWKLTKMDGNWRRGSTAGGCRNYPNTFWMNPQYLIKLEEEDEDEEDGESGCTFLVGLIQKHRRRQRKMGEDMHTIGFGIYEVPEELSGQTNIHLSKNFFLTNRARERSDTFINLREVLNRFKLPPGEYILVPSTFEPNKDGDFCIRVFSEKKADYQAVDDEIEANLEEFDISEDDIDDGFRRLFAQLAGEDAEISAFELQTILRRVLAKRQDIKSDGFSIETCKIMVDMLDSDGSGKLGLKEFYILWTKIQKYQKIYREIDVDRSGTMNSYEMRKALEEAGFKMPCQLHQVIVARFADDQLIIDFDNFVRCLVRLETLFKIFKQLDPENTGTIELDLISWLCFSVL
T1 sequence (P04632 1-268 partner): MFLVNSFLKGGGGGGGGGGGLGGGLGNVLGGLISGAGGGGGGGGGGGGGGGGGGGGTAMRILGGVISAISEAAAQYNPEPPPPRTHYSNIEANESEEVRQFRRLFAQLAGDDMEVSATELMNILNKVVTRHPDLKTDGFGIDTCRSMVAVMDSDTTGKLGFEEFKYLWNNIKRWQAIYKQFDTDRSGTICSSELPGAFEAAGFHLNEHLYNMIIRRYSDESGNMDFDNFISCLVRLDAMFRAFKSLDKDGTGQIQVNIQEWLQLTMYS
Test: in vitro calpain-2 inhibition, succinic-Leu-Tyr-AMC substrate
Format: biochemical
Conditions: selectivity calpain-2 over calpain-1
Description: Formula 1, where chiral center 1 is the L-form and chiral center 2 is a racemic mixture of D- and L- in this example was introduced at various concentrations (from 1 nM to 10 μM) into an in vitro mix comprising succinic-Leu-Tyr-AMC and calpain-1 or calpain-2 (Sasaki et al, 1984), and the kinetics of the loss of fluorescence were determined for each of the calpains (Powers et al, 2000). […] Therefore, the assessment of selectivity described herein was different than the prior teaching.
Formula 1A, where chiral center 1 is the S-form and chiral center 2 is the S-form was separated from the S-R-form (Formula 1B) using methods that are well-known methods for separating diastereoisomers. Formula 1A, which is also referred to herein as compound 18A, in this example was introduced at various concentrations into an in vitro mix comprising succinic-Leu-Tyr-AMC and μ-calpain or m-calpain (Sasaki et al, 1984), and the kinetics of the loss of fluorescence were determined for each of the calpains.

inhibits calpain-2 more than calpain-1 (Ki lower for calpain-2): approximately 100 fold
B1: Stargazin gamma-2: protein involved in AMPA receptor trafficking, calpain-2 specific substrate; cytoplasmic C-terminus (protein, UniProt Q9Y698 1-323, looked up)
Voltage-dependent calcium …: MGLFDRGVQMLLTTVGAFAAFSLMTIAVGTDYWLYSRGVCKTKSVSENETSKKNEEVMTHSGLWRTCCLEGNFKGLCKQIDHFPEDADYEADTAEYFLRAVRASSIFPILSVILLFMGGLCIAASEFYKTRHNIILSAGIFFVSAGLSNIIGIIVYISANAGDPSKSDSKKNSYSYGWSFYFGALSFIIAEMVGVLAVHMFIDRHKQLRATARATDYLQASAITRIPSYRYRYQRRSRSSSRSTEPSHSRDASPVGIKGFNTLPSTEISMYTLSRDPLKAATTPTATYNSDRDNSFLQVHNCIQKENKDSLHSNTANRRTTPV
